The labels stand for the following.
B1: Hu2126-H2K1-L71-H72b-Mu10 (antibody, IgG1, V domains shown)
VH: QVQLVQSGSELKKPGASVKVSCKASGYTFTDYSMHWVRQAPGQGLEWMGWINTGTGEPTYADDFKGRFTISRDTSKSTAYLQISSLKAEDTAVYYCVRVGRYDYAMDYWGQGTTVTVSS
VL: DIQMTQSPSSLSASVGDRVTITCRASQDVYTAVAWYQQKPGKAPKLLINAASSRPTGVPSRFSGSGSGTDFTLTISSLQPEDFATYYCQQYYSTPPTFGGGTKVEIK
notes: IgG1/Cκ; also called 7172b-Mu10
B2: Hu2126-H2K1-L71-H72b-Mu12 (antibody, IgG1, V domains shown)
VH: QVQLVQSGSELKKPGASVKVSCKASGYTFTDYSMHWVRQAPGQGLEWMGWINTGTGEPTYADDFKGRFTISRDTSKSTAYLQISSLKAEDTAVYYCVRVGRYDYAMDYWGQGTTVTVSS
VL: DIQMTQSPSSLSASVGDRVTITCRASQDVYTAVAWYQQKPGKAPKLLINEASSRPTGVPSRFSGSGSGTDFTLTISSLQPEDFATYYCQQYYSTPPTFGGGTKVEIK
notes: IgG1/Cκ; also called 7172b-Mu12
B3: Hu2126-H2K1-L71-H72b-Mu11 (antibody, IgG1, V domains shown)
VH: QVQLVQSGSELKKPGASVKVSCKASGYTFTDYSMHWVRQAPGQGLEWMGWINTGTGEPTYADDFKGRFTISRDTSKSTAYLQISSLKAEDTAVYYCVRVGRYDYAMDYWGQGTTVTVSS
VL: DIQMTQSPSSLSASVGDRVTITCRASQDVYTAVAWYQQKPGKAPKLLINDASSRPTGVPSRFSGSGSGTDFTLTISSLQPEDFATYYCQQYYSTPPTFGGGTKVEIK
notes: IgG1/Cκ; also called 7172b-Mu11
B4: Hu2126-H2K1-L71-H72b-Mu13 (antibody, IgG1, V domains shown)
VH: QVQLVQSGSELKKPGASVKVSCKASGYTFTDYSMHWVRQAPGQGLEWMGWINTGTGEPTYADDFKGRFTISRDTSKSTAYLQISSLKAEDTAVYYCVRVGRYDYAMDYWGQGTTVTVSS
VL: DIQMTQSPSSLSASVGDRVTITCRASQDVYTAVAWYQQKPGKAPKLLINKASSRPTGVPSRFSGSGSGTDFTLTISSLQPEDFATYYCQQYYSTPPTFGGGTKVEIK
notes: IgG1/Cκ; also called 7172b-Mu13
B5: Hu2117HK-Mu36 (Fc fusion, name in Kabat numbering)
scFv: EVQLVESGGGLVQPGGSLRLSCAASGFTYSSYGMSWVRQAPGKGLEWVASISGGGSYTKYPDSVKGRFTISRDNSKNTLYLQMNSLRAEDTAVYYCARDYAGFFDVWGQGTLVTVSSGGGGSGGGGSGGGGSDIQMTQSPSSLSASVGDRVTITCRSSQSLVHSNGNTYLHWYQQKPGKAPKLLIYKVSNRFSGVPSRFSGSGSGTDFTLTISSLQPEDFATYFCMQSTHVPYTFGQGTKVEIK
notes: scFv-hIgG1 Fc; not shown: human IgG1 Fc
B6: Hu2117HK-Mu48 (Fc fusion)
scFv: EVQLVESGGGLVQPGGSLRLSCAASGFTYSSYGMSWVRQAPGKGLEWVASISGGGSYTKYPDSVKGRFTISRDNSKNTLYLQMNSLRAEDTAVYYCARDYRGFFDVWGQGTLVTVSSGGGGSGGGGSGGGGSDIQMTQSPSSLSASVGDRVTITCRSSQSLVHSNGNTYLHWYQQKPGKAPKLLIYKVSNRFSGVPSRFSGSGSGTDFTLTISSLQPEDFATYFCSQSTHVPYTFGQGTKVEIK
notes: as for B5
B7: Hu2117HK-Mu40 (Fc fusion)
scFv: EVQLVESGGGLVQPGGSLRLSCAASGFTYSDYGMSWVRQAPGKGLEWVASISGGGSYTKYPDSVKGRFTISRDNSKNTLYLQMNSLRAEDTAVYYCARDYAGFFDVWGQGTLVTVSSGGGGSGGGGSGGGGSDIQMTQSPSSLSASVGDRVTITCRSSQSLVHSNGNTYLHWYQQKPGKAPKLLIYKVSNRFSGVPSRFSGSGSGTDFTLTISSLQPEDFATYFCSQSTHVPYTFGQGTKVEIK
notes: as for B5
B8: Hu2117HK-Mu47 (Fc fusion, name in Kabat numbering)
scFv: EVQLVESGGGLVQPGGSLRLSCAASGFTYSSYGMSWVRQAPGKGLEWVASISGGGSYTKYPDSVKGRFTISRDNSKNTLYLQMNSLRAEDTAVYYCARDYQGFFDVWGQGTLVTVSSGGGGSGGGGSGGGGSDIQMTQSPSSLSASVGDRVTITCRSSQSLVHSNGNTYLHWYQQKPGKAPKLLIYKVSNRFSGVPSRFSGSGSGTDFTLTISSLQPEDFATYFCSQSTHVPYTFGQGTKVEIK
notes: as for B5
B9: Hu2117HK-Mu46 (Fc fusion)
scFv: EVQLVESGGGLVQPGGSLRLSCAASGFTYSSYGMSWVRQAPGKGLEWVASISGGGSYTKYPDSVKGRFTISRDNSKNTLYLQMNSLRAEDTAVYYCARDYNGFFDVWGQGTLVTVSSGGGGSGGGGSGGGGSDIQMTQSPSSLSASVGDRVTITCRSSQSLVHSNGNTYLHWYQQKPGKAPKLLIYKVSNRFSGVPSRFSGSGSGTDFTLTISSLQPEDFATYFCSQSTHVPYTFGQGTKVEIK
notes: as for B5
B10: Hu2117HK-Mu49 (Fc fusion)
scFv: EVQLVESGGGLVQPGGSLRLSCAASGFTYSSYGMSWVRQAPGKGLEWVASISGGGSYTKYPDSVKGRFTISRDNSKNTLYLQMNSLRAEDTAVYYCARDYSGFFDVWGQGTLVTVSSGGGGSGGGGSGGGGSDIQMTQSPSSLSASVGDRVTITCRSSQSLVHSNGNTYLHWYQQKPGKAPKLLIYKVSNRFSGVPSRFSGSGSGTDFTLTISSLQPEDFATYFCSQSTHVPYTFGQGTKVEIK
notes: as for B5
B11: Hu2117HK-Mu39 (Fc fusion)
scFv: EVQLVESGGGLVQPGGSLRLSCAASGFTYSNYGMSWVRQAPGKGLEWVASISGGGSYTKYPDSVKGRFTISRDNSKNTLYLQMNSLRAEDTAVYYCARDYAGFFDVWGQGTLVTVSSGGGGSGGGGSGGGGSDIQMTQSPSSLSASVGDRVTITCRSSQSLVHSNGNTYLHWYQQKPGKAPKLLIYKVSNRFSGVPSRFSGSGSGTDFTLTISSLQPEDFATYFCSQSTHVPYTFGQGTKVEIK
notes: as for B5
B12: Hu2117HK-Mu45 (Fc fusion)
scFv: EVQLVESGGGLVQPGGSLRLSCAASGFTYSSYGMSWVRQAPGKGLEWVASISGGGSYTKYPDSVKGRFTISRDNSKNTLYLQMNSLRAEDTAVYYCARDYIGFFDVWGQGTLVTVSSGGGGSGGGGSGGGGSDIQMTQSPSSLSASVGDRVTITCRSSQSLVHSNGNTYLHWYQQKPGKAPKLLIYKVSNRFSGVPSRFSGSGSGTDFTLTISSLQPEDFATYFCSQSTHVPYTFGQGTKVEIK
notes: as for B5
B13: Hu2117HK-Mu50 (Fc fusion)
scFv: EVQLVESGGGLVQPGGSLRLSCAASGFTYSSYGMSWVRQAPGKGLEWVASISGGGSYTKYPDSVKGRFTISRDNSKNTLYLQMNSLRAEDTAVYYCARDYVGFFDVWGQGTLVTVSSGGGGSGGGGSGGGGSDIQMTQSPSSLSASVGDRVTITCRSSQSLVHSNGNTYLHWYQQKPGKAPKLLIYKVSNRFSGVPSRFSGSGSGTDFTLTISSLQPEDFATYFCSQSTHVPYTFGQGTKVEIK
notes: as for B5
B14: Hu2117HK-Mu43 (Fc fusion, name in Kabat numbering)
scFv: EVQLVESGGGLVQPGGSLRLSCAASGFTYSSYGMSWVRQAPGKGLEWVASISGGGSYTKYPDSVKGRFTISRDNSKNTLYLQMNSLRAEDTAVYYCARDYDGFFDVWGQGTLVTVSSGGGGSGGGGSGGGGSDIQMTQSPSSLSASVGDRVTITCRSSQSLVHSNGNTYLHWYQQKPGKAPKLLIYKVSNRFSGVPSRFSGSGSGTDFTLTISSLQPEDFATYFCSQSTHVPYTFGQGTKVEIK
notes: as for B5
B15: Hu2117HK-Mu38 (Fc fusion)
scFv: EVQLVESGGGLVQPGGSLRLSCAASGFTYNNYGMSWVRQAPGKGLEWVASISGGGSYTKYPDSVKGRFTISRDNSKNTLYLQMNSLRAEDTAVYYCARDYAGFFDVWGQGTLVTVSSGGGGSGGGGSGGGGSDIQMTQSPSSLSASVGDRVTITCRSSQSLVHSNGNTYLHWYQQKPGKAPKLLIYKVSNRFSGVPSRFSGSGSGTDFTLTISSLQPEDFATYFCSQSTHVPYTFGQGTKVEIK
notes: as for B5
B16: Hu2117HK-Mu44 (Fc fusion, name in Kabat numbering)
scFv: EVQLVESGGGLVQPGGSLRLSCAASGFTYSSYGMSWVRQAPGKGLEWVASISGGGSYTKYPDSVKGRFTISRDNSKNTLYLQMNSLRAEDTAVYYCARDYEGFFDVWGQGTLVTVSSGGGGSGGGGSGGGGSDIQMTQSPSSLSASVGDRVTITCRSSQSLVHSNGNTYLHWYQQKPGKAPKLLIYKVSNRFSGVPSRFSGSGSGTDFTLTISSLQPEDFATYFCSQSTHVPYTFGQGTKVEIK
notes: as for B5
B17: Hu2117HK-Mu41 (Fc fusion)
scFv: EVQLVESGGGLVQPGGSLRLSCAASGFTYSSYGMSWVRQAPGKGLEWVASISGGGNYAKYPDSVKGRFTISRDNSKNTLYLQMNSLRAEDTAVYYCARDYAGFFDVWGQGTLVTVSSGGGGSGGGGSGGGGSDIQMTQSPSSLSASVGDRVTITCRSSQSLVHSNGNTYLHWYQQKPGKAPKLLIYKVSNRFSGVPSRFSGSGSGTDFTLTISSLQPEDFATYFCSQSTHVPYTFGQGTKVEIK
notes: as for B5
B18: Hu2117HK-Mu42 (Fc fusion)
scFv: EVQLVESGGGLVQPGGSLRLSCAASGFTYSSYGMSWVRQAPGKGLEWVASISGSGSYTKYPDSVKGRFTISRDNSKNTLYLQMNSLRAEDTAVYYCARDYAGFFDVWGQGTLVTVSSGGGGSGGGGSGGGGSDIQMTQSPSSLSASVGDRVTITCRSSQSLVHSNGNTYLHWYQQKPGKAPKLLIYKVSNRFSGVPSRFSGSGSGTDFTLTISSLQPEDFATYFCSQSTHVPYTFGQGTKVEIK
notes: as for B5

As a reminder, the Kd is the equilibrium constant for the complex coming apart. Broadly, the koff is the first-order rate constant of dissociation. One may read the kon as the rate constant with which the complex forms.

The target of one experiment is T1, recombinant human HER2 extracellular domain protein (human, UniProt P04626 23-652).
T1 construct: range 23-652; Range is printed for the immunogen/panning protein; also called ErbB2; recombinant HER2 protein
Put plainly: BLI, Protein A capture.
Take B1: the dissociation constant (Kd) came out at 3.38 nM, the koff worked out at 0.000356 s⁻¹ and the kon is 105000 M⁻¹ s⁻¹.

In the case of B2, the Kd worked out at 6.74 nM and the kon was 78300 M⁻¹ s⁻¹.

For B3, the Kd amounted to 5.35 nM, the koff was found to be 0.000482 s⁻¹ and the kon was determined as 90100 M⁻¹ s⁻¹.

B4: the Kd came to 7.23 nM, the koff was found to be 0.000707 s⁻¹ and the kon was 97800 M⁻¹ s⁻¹.

The target of the next experiment is T1, recombinant human HER2 extracellular …. The experiment in a line: BLI, Protein A capture. The source holds these as a separate data set.
Turning to B5, the dissociation constant Kd was 31.4 nM, the dissociation rate constant (koff) is 0.00198 s⁻¹ and the kon was 63200 M⁻¹ s⁻¹.

In the case of B6, the equilibrium dissociation constant (Kd) amounted to 12.1 nM, the koff stood at 0.00118 s⁻¹ and the kon was determined as 97900 M⁻¹ s⁻¹.

For B7, the Kd is 11.9 nM, the koff was 0.000867 s⁻¹ and the kon worked out at 72700 M⁻¹ s⁻¹.

As for B8, the equilibrium dissociation constant (Kd) amounted to 15.3 nM, the off-rate (koff) worked out at 0.000828 s⁻¹ and the association rate constant (kon) amounted to 54300 M⁻¹ s⁻¹.

As for B9, the Kd came out at 10.3 nM, the koff turned out to be 0.000794 s⁻¹ and the kon amounted to 77400 M⁻¹ s⁻¹.

As to B10, the Kd was determined as 11.8 nM, the koff was determined as 0.000761 s⁻¹ and the on-rate (kon) was determined as 64500 M⁻¹ s⁻¹.

Regarding B11, the dissociation constant (Kd) was 12.3 nM, the dissociation rate constant (koff) was determined as 0.0012 s⁻¹ and the kon worked out at 97700 M⁻¹ s⁻¹.

As to B12, the equilibrium dissociation constant (Kd) was determined as 12.8 nM, the off-rate constant (koff) is 0.00126 s⁻¹ and the kon came out at 98000 M⁻¹ s⁻¹.

Consider B13, for which the Kd was 16 nM, the koff was found to be 0.0016 s⁻¹ and the kon stood at 100000 M⁻¹ s⁻¹.

Turning to B14, the equilibrium dissociation constant (Kd) stood at 56.7 nM, the koff came to 0.00406 s⁻¹ and the kon is 71700 M⁻¹ s⁻¹.

With B15, the Kd turned out to be 12.1 nM, the koff is 0.00121 s⁻¹ and the association rate constant (kon) is 100000 M⁻¹ s⁻¹.

B16: the dissociation constant (Kd) was 42.5 nM, the off-rate (koff) was 0.0034 s⁻¹ and the kon was 80000 M⁻¹ s⁻¹.

Consider B17, for which the equilibrium dissociation constant (Kd) was determined as 9.66 nM, the off-rate constant (koff) is 0.000603 s⁻¹ and the kon was determined as 62400 M⁻¹ s⁻¹.

As for B18, the Kd amounted to 33.5 nM, the dissociation rate constant (koff) is 0.00178 s⁻¹ and the on-rate (kon) turned out to be 53000 M⁻¹ s⁻¹.

Source of the values: patent EP4725969A1 (Latticon (Suzhou) Biopharmaceuticals Co., Ltd., dated 2024).
